Test results taken from article PMC4081113, “Cationic Surfactant-Based Colorimetric Detection of Plasmodium Lactate Dehydrogenase, a Biomarker for Malaria, Using the Specific DNA Aptamer”.

Tests used:
fibrinogen = fibrinogen (human, UniProt P02671-2;P02675;P02679-2 20-644;31-491;27-437); test: colorimetric AuNP/CTAB aggregation assay (A650/A520); 1 uM protein, 4 nM CTAB; 20 mM HEPES pH 7.4, room temperature, 20 nM aptamer with protein 20 min, then 4 nM CTAB 20 min, then AuNPs 5 min (200 uL final); settings: protein: commercial; chain copies: 2;2;2
fibrinogen, sequence (P02671 other isoform, or with tags, fused parts or gaps, chain 1 of 3): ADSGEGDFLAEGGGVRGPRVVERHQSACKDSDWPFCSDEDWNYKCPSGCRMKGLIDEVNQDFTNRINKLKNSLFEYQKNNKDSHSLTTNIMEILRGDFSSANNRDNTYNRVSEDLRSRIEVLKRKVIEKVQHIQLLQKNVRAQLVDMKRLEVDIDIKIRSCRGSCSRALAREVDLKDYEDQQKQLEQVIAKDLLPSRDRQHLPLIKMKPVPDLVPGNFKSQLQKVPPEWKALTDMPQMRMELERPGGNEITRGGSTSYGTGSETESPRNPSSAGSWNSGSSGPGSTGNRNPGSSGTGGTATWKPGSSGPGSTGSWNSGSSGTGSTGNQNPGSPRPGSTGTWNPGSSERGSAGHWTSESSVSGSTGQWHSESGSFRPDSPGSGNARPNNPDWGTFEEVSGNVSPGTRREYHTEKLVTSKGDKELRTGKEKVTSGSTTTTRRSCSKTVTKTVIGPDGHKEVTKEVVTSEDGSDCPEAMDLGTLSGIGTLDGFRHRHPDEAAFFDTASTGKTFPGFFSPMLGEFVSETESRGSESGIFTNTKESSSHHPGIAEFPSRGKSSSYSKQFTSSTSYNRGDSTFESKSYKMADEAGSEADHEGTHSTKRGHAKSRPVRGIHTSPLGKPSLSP
fibrinogen, sequence (P02675 31-491, chain 2 of 3): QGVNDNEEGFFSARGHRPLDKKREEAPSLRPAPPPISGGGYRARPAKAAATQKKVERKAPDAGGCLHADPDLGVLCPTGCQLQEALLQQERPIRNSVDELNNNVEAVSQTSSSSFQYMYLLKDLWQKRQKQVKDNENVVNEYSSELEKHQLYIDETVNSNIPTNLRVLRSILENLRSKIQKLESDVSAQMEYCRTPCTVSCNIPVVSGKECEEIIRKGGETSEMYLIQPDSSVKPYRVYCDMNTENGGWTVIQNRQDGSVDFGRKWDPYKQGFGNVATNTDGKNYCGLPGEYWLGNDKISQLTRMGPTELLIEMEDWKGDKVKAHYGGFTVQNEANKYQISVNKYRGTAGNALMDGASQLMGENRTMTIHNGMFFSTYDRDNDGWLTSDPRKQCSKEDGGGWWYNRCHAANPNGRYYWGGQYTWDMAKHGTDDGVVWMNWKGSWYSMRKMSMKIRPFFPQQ
fibrinogen, sequence (P02679 other isoform, or with tags, fused parts or gaps, chain 3 of 3): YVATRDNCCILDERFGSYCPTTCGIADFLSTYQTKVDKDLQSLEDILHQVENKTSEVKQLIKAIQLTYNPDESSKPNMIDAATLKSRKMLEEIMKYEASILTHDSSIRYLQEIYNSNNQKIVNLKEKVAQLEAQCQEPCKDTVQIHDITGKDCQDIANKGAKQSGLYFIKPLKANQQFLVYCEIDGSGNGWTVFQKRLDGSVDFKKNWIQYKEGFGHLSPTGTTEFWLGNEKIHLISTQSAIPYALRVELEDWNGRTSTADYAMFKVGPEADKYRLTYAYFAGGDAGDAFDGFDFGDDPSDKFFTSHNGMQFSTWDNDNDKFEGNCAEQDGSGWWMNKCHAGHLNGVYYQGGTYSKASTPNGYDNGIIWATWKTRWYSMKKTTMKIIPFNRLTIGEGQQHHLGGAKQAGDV

[1] = molecular target: human lactate dehydrogenase A chain (hLDHA) (human, UniProt P00338 2-332); test: as above
[2] = molecular target: Plasmodium vivax lactate dehydrogenase (PvLDH) (Plasmodium vivax, UniProt Q4PRK9 1-316); test: colorimetric AuNP/CTAB aggregation assay (A650/A520); settings: protein: recombinant; chain copies: 4
[3] = molecular target: Plasmodium falciparum lactate dehydrogenase (PfLDH) (Plasmodium falciparum, UniProt Q76NM3 1-316); test: colorimetric AuNP/CTAB aggregation assay (A650/A520); 4 nM CTAB, 20 nM aptamer; LOD 2.94 pM (not a Kd); 20 mM HEPES pH 7.4, room temperature, 20 nM aptamer with protein 20 min, then 4 nM CTAB 20 min, then AuNPs 5 min (200 uL final); settings: protein: recombinant; chain copies: 4

GTTCGATTGGATTGTGCCGGAAGTGCTGGCTCGAAC (ssDNA) [pL1 aptamer]
binding result (fibrinogen): no binding
binding result [1]: no binding
binding result [2]: binds
binding result [3]: binds
